In patent US20250066826A1, “ARTIFICIAL SYNTHESIS METHOD FOR MALONYL-COENZYME A (COA) AND USE THEREOF” (SHANGHAI JIAO TONG UNIVERSITY, priority 2023, published 2025):

B1: CCNA_03245: transaminase from Caulobacter vibrioides, SEQ ID NO: 9 (protein)
chain: MLPMPDFGANDLDAFWMPFTPNRRFKRHPRMLSSASGMWYRTPESREVLDATSGLWCVNAGHDRPKIREAIQKQAAEMDYAPCFNMGHPLAFQFASRLAQITPKGLDRIFFTNSGSESVDTALKIALAYHRARGKGTKTRLIGRERGYHGVGFGGISVGGIPKNRMYFGSLLTGVDHLPHTHGLPGNTCAKGQPENGAHLADDLERIVALHDASNIAAVIVEPVAGSTGVLIPPKGYLERLRAICDKHDILLIFDEVITGFGRVGAPFAAERFGVTPDLICMAKGLTNAAVPCGAVAASGKIYDAMMDGADAPIELFHGYTYSAHPLACAAGLATLETYREDDLFARAAGLEGYWQDAMHSLADARHVVDVRNLGLVAGIELEPRPGAPTARAMEVFETCFDEGLLIRVTGDIIALSPPLILEKDHIDRMVETIRRVLGQVD
modifications: The sequence is synthetized.
B2: Msed_0709: oxidoreductase from Metallosphaera sedula, SEQ ID NO: 13 (protein)
chain: MRRTLKAAILGATGLVGIEYVRMLADHPYIKPTYLAGKGSVGKPYGEIVRWQTVGNVPKEVANQEVKPTDPKLMDDVDIIFSPLPQGAAGPVEEQFAKLGFNVISNSPDHRFDMDVPMIIPEVNPHTVTLIDEQRKRRDWKGFIVTTPLCTAQGAAIPLTPIYQNFKMSGVMITTMQSLSGAGYPGIASLDIVDNALPLGDGYDAKTVKEITRILSEVKRNVQEPGVNEITLDATTHRIATIHGHYEVAYVTFKEDTDVRKVMESMESFKGEPQDLKLPTAPEKPIIVTTQDARPQVFFDRWAGNPPGMSVVVGRLKQVNPRTIRFVSLIHNTVRGAAGGGVLTAELLVEKGYIDKR
modifications: The sequence is synthetized.
B3: MCR-C: oxidoreductase (malonyl-CoA reductase) from Chloroflexus aurantiacu, SEQ ID NO: 70 (protein)
chain: SATTGARSASVGWAESLIGLHLGKVALITGGSAGIGGQIGRLLALSGARVMLAARDRHKLEQMQAMIQSELAEVGYTDVEDRVHIAPGCDVSSEAQLADLVERTLSAFGTVDYLINNAGIAGVEEMVIDMPVEGWRHTLFANLISNYSLMRKLAPLMKKQGSGYILNVSSYFGGEKDAAIPYPNRADYAVSKAGQRAMAEVFARFLGPEIQINAIAPGPVEGDRLRGTGERPGLFARRARLILENKRLNELHAALIAAARTDERSMHELVELLLPNDVAALEQNPAAPTALRELARRFRSEGDPAASSSSALLNRSIAAKLLARLHNGGYVLPADIFANLPNPPDPFFTRAQIDREARKVRDGIMGMLYLQRMPTEFDVAMATVYYLADRVVSGETFHPSGGLRYERTPTGGELFGLPSPERLAELVGSTVYLIGEHLTEHLNLLARAYLERYGARQVVMIVETETGAETMRRLLHDHVEAGRLMTIVAGDQIEAAIDQAITRYGRPGPVVCTPFRPLPTVPLVGRKDSDWSTVLSEAEFAELCEHQLTHHFRVARWIALSDGARLALVTPETTATSTTEQFALANFIKTTLHAFTATIGVESERTAQRILINQVDLTRRARAEEPRDPHERQQELERFIEAVLLVTAPLPPEADTRYAGRIHRGRAITV
modifications: The sequence is synthetized.
B4: Pyd4: transaminase from Saccharomyces kluyveri, SEQ ID NO: 72 (protein)
chain: MPSYSVAELYYPDEPTEPKISTSSYPGPKAKQELEKLSNVFDTRAAYLLADYYKSRGNYIVDQDGNVLLDVYAQISSIALGYNNPEILKVAKSDAMSVALANRPALACFPSNDYGQLLEDGLLKAAPQGQDKIWTALSGSDANETAFKACFMYQAAKKRNGRSFSTEELESVMDNQLPGTSEMVICSFEKGFHGRLFGSLSTTRSKPIHKLDIPAFNWPKAPFPDLKYPLEENKEANKAEESSCIEKFSQIVQEWQGKIAAVIIEPIQSEGGDNHASSDFFQKLREITIENGILMIVDEVQTGVGATGKMWAHEHWNLSNPPDLVTFSKKFQAAGFYYHDPKLQPDQPFRQFNTWCGDPSKALIAKVIYEEIVKHDLVTRTAEVGNYLFNRLEKLFEGKNYIQNLRGKGQGTYIAFDFGTSSERDSFLSRLRCNGANVAGCGDSAVRLRPSLTFEEKHADVLVSIFDKTLRQLYG
modifications: The sequence is synthetized.
B5: PydD2: transaminase from Bacillus megaterium, SEQ ID NO: 10 (protein)
chain: MVQVSQNEKDLRAKDEQYVWHGMKPYSPDATMVATKAKGAWITDEQGNRYLDAMAGLWCVNTGYGRDELALAAYEQLKELAYFPLTQSHVPAIKLAEKLNEMLGDDYVIFFSNSGSEANETAFKIVRQYHQQKGEHSRYKFISRYRGYHGNSMGALAATGQAQRKYKYEPLAPGFIHVAPPDSYRGQDDYDAPKEQLQSVKDIDNVMTWELSETIAAVIMEPIITGGGILLPPQNYMKGVKETCEKHGALLIADEVICGFGRTGEAFGFMNYDVKPDIITMAKGITSAYLPLSATAVKKEIYEAFKDSDQYEYFRHVNTFGGSPAACALALKNLEIMERENLFDRSKQLGAYVLSELTPLIDSHPYVGDVRGKGLLIGIELVADKQTKEPLDVNLVNEVVAKCKSKGVIIGKNGATVAGYNNVLTLSPPLNIEESDIELLLATITYALDSIK
modifications: The sequence is synthetized.
B6: AptA: transaminase from Acinetobacter pittii, SEQ ID NO: 8 (protein)
chain: MVMFDTDKFSDSEHTLDAVQPNNNMYINYQAHWMPFSANRNFAKDPRMIVGAKGSYLIDDSGREIYDSLSGLWTCGAGHTLPEIQQAVSAQLGQLDYSPAFQFGHPLSFKLADKIVQHMPEKLQHVFFTNSGSESADTAIKMARAYWRIKGKPSKTKLIGRARGYHGVNVAGTSLGGIGGNRKMFGQLMDVDHLPHTLQPNLTFTKGCAETGGVELANEMLKLIELHDASNIAAVIVEPISGSAGCIVPPTGYLQRLREICDQHDILLIFDEVITGFGRLGTWTGAEYFGVTPDILNFAKQVTNGAIPLGGVVASHEIYSAFMQQELPEHAIEFTHGYTYSAHPVACAAALAALEVLEKKNLLAQSAALAPSFEKMLHGLKGAPHVLDIRNCGLIGALQLAPRDGDATIRGFELGMKLWKEGFYVRFGGDTLQFGPMFNGTEADIDRLMNAVGDALYQVN
modifications: The sequence is synthetized.
B7: YhxA: transaminase from Bacillus cereus, SEQ ID NO: 11 (protein)
chain: MELMIVQVTEQTQSLKKTDEKYLWHAMRGAAPSPTNLIITKAEGAWVTDIDGNRYLDGMSGLWCVNVGYGRKELARAAFEQLEEMPYFPLTQSHVPAIKLAEKLNEWLDDEYVIFFSNSGSEANETAFKIARQYHQQKGDHGRYKFISRYRAYHGNSMGALAATGQAQRKYKYEPLGQGFLHVAPPDTYRNPEDVHTLASAEEIDRVMTWELSQTVAGVIMEPIITGGGILMPPDGYMEKVKEICEKHGALLICDEVICGFGRTGKPFGFMNYGVKPDIITMAKGITSAYLPLSATAVRREVYEAFVGSDDYDRFRHVNTFGGNPAACALALKNLEIMENEKLIERSKELGERLLYELEDVKEHPNVGDVRGKGLLLGIELVEDKQTKEPASIEKMNKVINACKEKGLIIGKNGDTVAGYNNILQLAPPLSITEEDFTFIVKTMKECLAQL
modifications: The sequence is synthetized.
B8: pydD: transaminase from Ureibacillus massiliensis, SEQ ID NO: 71 (protein)
chain: MSDYLSIKEQDKQYVLHSWAKQGSFNPKVIAKAEGVCFWDDAGNRYFDMSSQLVYVNVGHQHPKVLKAFQEIGTYPLAGPSFATKPKSDLSQRIIELAPSNMAKVFYTSGGAEANDHAVKIARMVSGRYKIFSRYRSYHGATFGAGNLTGESRRFAAEPGLPGFVKFEVPYLYREVIDFDSEEAATAYYLGKLRNQILYEGSDTIAAIFIEPIPGSNGVLIPPKGYLEGVRALCDEFGILMICDEVMTGFGRTGKGFAVDHYDFKPDIMTFAKGVTSGYAPLGGVIISEDISRFFDENVLMTGLTYSGHTMCTQIGVANLEVYEEENIFENAEKMGILLKQRLEKLLTFPSIGEIRSIGLFAGVELVKDKATKEPIIQYGLDYGKDPVGLMNKFISMLSANGFYTYSHESTVIIAPPLIITEEQINEAMDIFESTLKQFEKEGLFPEETLSV
modifications: The sequence is synthetized.
B9: BauA: transaminase from Pseudomonas aeruginosa, amino acid sequence SEQ ID NO: 7 (protein)
chain: MNQPLNVAPPVSSELNLRAHWMPFSANRNFQKDPRIIVAAEGSWLTDDKGRKVYDSLSGLWTCGAGHSRKEIQEAVARQLGTLDYSPGFQYGHPLSFQLAEKIAGLLPGELNHVFFTGSGSECADTSIKMARAYWRLKGQPQKTKLIGRARGYHGVNVAGTSLGGIGGNRKMFGQLMDVDHLPHTLQPGMAFTRGMAQTGGVELANELLKLIELHDASNIAAVIVEPMSGSAGVLVPPVGYLQRLREICDQHNILLIFDEVITAFGRLGTYSGAEYFGVTPDLMNVAKQVTNGAVPMGAVIASSEIYDTFMNQALPEHAVEFSHGYTYSAHPVACAAGLAALDILARDNLVQQSAELAPHFEKGLHGLQGAKNVIDIRNCGLAGAIQIAPRDGDPTVRPFEAGMKLWQQGFYVRFGGDTLQFGPTFNARPEELDRLFDAVGEALNGIA
modifications: The sequence is synthetized.

Columns and labels:
Assay type in all cases: biochemical
[1] = Transaminase activity test using pyruvic acid as a substrate (coupled with MCR-C, NADPH at 340 nm); details: 5 mM pyruvic acid, 5 mM β-alanine, 2.5 mM NADP+, 2.5 mM CoA, 1 M purified transaminase, 10 M MCR-C, pH 7.8, 37° C.
Description: It can be seen that the BauA has the best effect (FIG. 4A).

[2] = Oxidoreductase activity test (coupled with BauA, increase at 340 nm); details: 1 M purified oxidoreductase, 37° C.; for activity of the target enzyme (in words): in-vitro reaction with 10 M BauA
Description: Oxidoreductase activity test: in-vitro reaction was carried out in a total reaction volume of 200 μL, containing 100 mM Tris buffer (pH 7.8), 2 mM MgCl2, 3 mM DTT, 5 mM pyruvic acid, 5 mM 3-alanine, 2.5 mM NADP^+, 2.5 mM CoA, 10 M BauA, and 1 M purified oxidoreductase, the reaction mixture was cultured at 37° C., and the increase in 340 nm was monitored.

[3] = Transaminase activity test using α-ketoglutaric acid as a substrate; details: 5 mM α-ketoglutaric acid, 5 mM β-alanine, 10 M purified transaminase, 10 M MCR-C, pH 7.8, 37° C.
[4] = Transaminase activity test using oxaloacetic acid as a substrate; details: 5 mM oxaloacetic acid, 5 mM β-alanine, 10 M purified transaminase, 10 M MCR-C, pH 7.8, 37° C.

Molecule | activity of the transaminases [1] | activity of the transaminases [4] | also measured
B1 | 0.13 µmol/min/mg | – | –
B2 | – | – | activity of the target enzyme (in words) [2]: exhibit the activity of the target enzyme
B3 | – | – | oxidoreductase activity ([2]; 5 mM pyruvic acid, 5 mM alanine, 2.5 mM NADP+, 2.5 mM CoA, 10 M BauA): 2.0 µmol/min/mg; activity of the target enzyme (in words) [2]: exhibit the activity of the target enzyme
B4 | – | – | activity of the transaminases [3]: 1.15 µmol/min/mg
B5 | 0.96 µmol/min/mg | 0.49 µmol/min/mg | –
B6 | 0.90 µmol/min/mg | 0.42 µmol/min/mg | –
B7 | 0.15 µmol/min/mg | – | –
B8 | – | – | activity of the transaminases [3]: 0.825 µmol/min/mg
B9 | 1.60 µmol/min/mg | 0.46 µmol/min/mg | –
